Values belong to the binder of their own block, whether it stands above or below them.
Columns and labels:
TSC2 [1] = molecular target: T1, TSC2 (human, UniProt P49815 1-1807, limits assumed); experiment: in vitro pull-down from extract with 6× His baits (FIG. 13)
T1 construct: Untagged TSC2 in 293T cell extracts, endogenous or from a transfected TSC2 cDNA; Some extracts of the pull-downs may hold HA-TSC2; also called tuberin; endogenous TSC2

[2] = molecular target: T2, HA-SV5-full length hRTP801 (human, UniProt Q9NX09 1-232); experiment: co-IP with M2 anti-FLAG resin from 293T HEK extracts, immunoblot (FIG. 21)
T2 construct: Full length, expressed in transfected 293T HEK cells; also called HA-SV5-hRTP801; HA-full length hRTP801; not shown: HA and SV5 tags
T2 sequence: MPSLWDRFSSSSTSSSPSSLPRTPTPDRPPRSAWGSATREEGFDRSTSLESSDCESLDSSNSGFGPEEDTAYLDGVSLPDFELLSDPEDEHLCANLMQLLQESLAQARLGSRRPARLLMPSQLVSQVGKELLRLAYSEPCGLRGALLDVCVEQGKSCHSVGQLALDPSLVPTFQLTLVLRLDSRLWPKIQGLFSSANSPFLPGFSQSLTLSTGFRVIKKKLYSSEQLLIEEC
Description: 293T HEK cells were co-transfected with a plasmid containing cDNA of HA-SV5-full length hRTP801 (“Prey”) as well as plasmid containing cDNA of one of the following: FLAG-full length hRTP801, FLAG-(C) hRTP801, FLAG-(N-C1) hRTP801, FLAG-(N-C1) hRTP801, FLAG-(N-C2)hRTP801 and FLAG-(C3) hRTP801. Forty-eight hours after transfection, cells were treated with 150 uM cobalt chloride for 18 hrs to mimick hypoxic stress conditions. The next day, cytosolic extracts were made by mechanic lysis under hypotonic conditions. FLAG-tagged bait proteins were immunoprecipitated with M2 anti-FLAG resin (Sigma). Following extensive washing, immunoprecipitated material was analyzed by immunblotting with either anti-hRTP801 polyclonal antibodies (proprietary) or with anti-SV5 polyclonal antibodies (AbCam).

[3] = molecular target: T3, HA-tagged TSC2 “N” fragment (a.a. 2-935) (human, UniProt P49815 2-935); experiment: co-IP with anti-FLAG, anti-HA blot (FIG. 17)
T3 construct: Printed as a.a; also called HA-“N” fragment of TSC2; not shown: HA tag
T3 sequence (P49815 other isoform, or with tags, fused parts or gaps): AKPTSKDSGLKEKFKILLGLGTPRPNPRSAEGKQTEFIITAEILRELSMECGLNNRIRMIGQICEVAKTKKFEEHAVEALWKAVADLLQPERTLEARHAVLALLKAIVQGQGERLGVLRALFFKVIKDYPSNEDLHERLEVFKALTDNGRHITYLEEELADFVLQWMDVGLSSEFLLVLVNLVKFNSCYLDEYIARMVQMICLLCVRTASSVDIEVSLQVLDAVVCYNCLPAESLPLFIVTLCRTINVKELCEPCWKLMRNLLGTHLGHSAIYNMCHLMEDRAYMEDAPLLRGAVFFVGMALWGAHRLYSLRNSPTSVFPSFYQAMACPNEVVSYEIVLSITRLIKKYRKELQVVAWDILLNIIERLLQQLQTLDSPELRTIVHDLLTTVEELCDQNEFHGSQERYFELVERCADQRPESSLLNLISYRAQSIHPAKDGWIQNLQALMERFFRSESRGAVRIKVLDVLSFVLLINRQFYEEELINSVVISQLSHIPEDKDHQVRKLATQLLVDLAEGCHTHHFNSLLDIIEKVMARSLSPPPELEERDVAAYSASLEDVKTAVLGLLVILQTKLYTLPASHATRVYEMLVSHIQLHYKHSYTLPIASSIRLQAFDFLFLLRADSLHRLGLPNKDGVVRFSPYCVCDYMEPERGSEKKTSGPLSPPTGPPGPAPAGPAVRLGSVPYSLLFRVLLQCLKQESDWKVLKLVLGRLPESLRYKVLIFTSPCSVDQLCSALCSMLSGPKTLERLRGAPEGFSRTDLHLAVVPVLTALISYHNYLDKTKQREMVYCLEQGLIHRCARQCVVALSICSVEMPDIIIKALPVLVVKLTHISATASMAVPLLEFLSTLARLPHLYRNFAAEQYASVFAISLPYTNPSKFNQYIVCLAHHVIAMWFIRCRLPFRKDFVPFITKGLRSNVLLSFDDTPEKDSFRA
Description: Cytosolic extracts were prepared and IP was done using anti-FLAG antibodies. Analysis of the immnocomplexes was done with anti-HA.

TSC2 [4] = molecular target: T1, TSC2; experiment: co-IP with anti-FLAG from 293T extracts (FIG. 34)
Description: Description: 293T cells were transiently transfected with either empty plasmid or with plasmid containing FLAG-hRTP801 or FLAG-hRTP801-L (REDD2) cDNAs. 48 hrs. post-transfection, cobalt chloride (150 uM) was added (or omitted) for another 24 hrs. Cytosolic extracts prepared and IP was done using anti-FLAG antibodies. Alternatively, 293T cells were transiently transfected with plasmid containing FLAG-hRTP801 cDNA and plasmid containing TSC1 or TSC2 cDNAs or both. 48 hrs. post transfection, cobalt chloride (150 uM) was added for another 24 hrs. Cytosolic extracts prepared and IP was done using anti-TSC1, anti-TSC2 or normal rabbit IgG (NRIgG) antibodies. Alternatively, 293T cells were transiently transfected with either empty plasmid,plasmid containing FLAG-hRTP801 cDNA and plasmids containing either TSC1 and/or TSC2 cDNAs. 48 hrs. post transfection, cobalt chloride (150 uM) was added for another 24 hrs. Cytosolic extracts prepared and IP was done using anti-FLAG antibodies.

HA-tagged TSC2 (HA-TSC2) = molecular target: T4, HA-tagged TSC2 (HA-TSC2) (human, UniProt P49815 1-1807); experiment: co-IP with anti-FLAG from transfected 293T post-nuclear supernatant (FIG. 25)
T4 construct: Expressed in transfected 293T cells; also called full length HA-tagged TSC2; not shown: HA tag
T4 sequence (P49815 other isoform, or with tags, fused parts or gaps limits assumed): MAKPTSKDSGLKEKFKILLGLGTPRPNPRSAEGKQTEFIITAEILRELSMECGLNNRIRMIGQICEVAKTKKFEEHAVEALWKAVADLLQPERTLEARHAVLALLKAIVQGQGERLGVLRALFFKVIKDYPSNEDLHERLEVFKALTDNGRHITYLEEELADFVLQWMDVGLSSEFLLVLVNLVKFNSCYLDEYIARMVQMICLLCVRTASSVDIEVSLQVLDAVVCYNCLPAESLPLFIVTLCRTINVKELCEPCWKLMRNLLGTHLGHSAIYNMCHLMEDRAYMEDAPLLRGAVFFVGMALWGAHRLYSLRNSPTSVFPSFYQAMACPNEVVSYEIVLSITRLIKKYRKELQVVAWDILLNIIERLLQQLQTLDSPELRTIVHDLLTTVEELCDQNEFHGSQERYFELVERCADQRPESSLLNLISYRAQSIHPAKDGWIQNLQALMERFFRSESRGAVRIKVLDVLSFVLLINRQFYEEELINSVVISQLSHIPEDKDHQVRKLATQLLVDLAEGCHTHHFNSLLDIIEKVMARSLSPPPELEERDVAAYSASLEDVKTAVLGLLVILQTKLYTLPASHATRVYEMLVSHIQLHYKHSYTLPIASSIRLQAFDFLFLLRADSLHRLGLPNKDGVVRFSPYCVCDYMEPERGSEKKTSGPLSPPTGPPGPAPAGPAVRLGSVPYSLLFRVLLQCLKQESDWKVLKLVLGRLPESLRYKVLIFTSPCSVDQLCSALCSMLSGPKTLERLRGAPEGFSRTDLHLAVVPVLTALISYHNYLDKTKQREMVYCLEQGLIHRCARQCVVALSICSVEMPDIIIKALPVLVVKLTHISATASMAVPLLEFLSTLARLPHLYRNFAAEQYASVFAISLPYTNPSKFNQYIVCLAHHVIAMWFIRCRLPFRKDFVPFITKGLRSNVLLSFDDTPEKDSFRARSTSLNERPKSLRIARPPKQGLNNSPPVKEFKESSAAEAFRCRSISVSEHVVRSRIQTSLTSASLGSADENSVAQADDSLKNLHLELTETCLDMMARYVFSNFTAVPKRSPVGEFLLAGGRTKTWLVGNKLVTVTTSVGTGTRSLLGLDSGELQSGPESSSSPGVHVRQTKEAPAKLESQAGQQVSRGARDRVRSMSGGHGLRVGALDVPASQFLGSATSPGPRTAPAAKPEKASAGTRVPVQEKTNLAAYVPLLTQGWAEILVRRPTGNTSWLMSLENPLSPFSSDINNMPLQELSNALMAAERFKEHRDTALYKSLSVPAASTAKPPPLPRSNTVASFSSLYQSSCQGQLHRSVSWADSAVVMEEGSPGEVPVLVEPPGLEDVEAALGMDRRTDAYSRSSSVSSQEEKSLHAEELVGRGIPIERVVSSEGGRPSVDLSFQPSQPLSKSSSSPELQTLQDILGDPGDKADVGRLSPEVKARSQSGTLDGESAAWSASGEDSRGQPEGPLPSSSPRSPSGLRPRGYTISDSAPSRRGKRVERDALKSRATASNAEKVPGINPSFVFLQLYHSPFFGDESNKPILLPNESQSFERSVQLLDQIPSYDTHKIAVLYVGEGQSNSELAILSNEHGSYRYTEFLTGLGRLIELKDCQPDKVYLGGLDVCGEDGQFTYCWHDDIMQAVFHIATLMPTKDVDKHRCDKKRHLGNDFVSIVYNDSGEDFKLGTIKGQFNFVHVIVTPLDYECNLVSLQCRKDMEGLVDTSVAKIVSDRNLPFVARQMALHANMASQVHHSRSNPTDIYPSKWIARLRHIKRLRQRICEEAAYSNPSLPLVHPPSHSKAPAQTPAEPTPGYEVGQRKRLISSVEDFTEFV
Description: TSC2 region that binds hRTP801 (FIG. 25). Human TSC2 HA-tagged “N” and “C” fragments (FIG. 25, upper panel) as well as full length HA-tagged TSC2 were transfected into 293T cells along with FLAG-hRTP801 or with empty vector. Forty-eight hours after transfection, the cells were treated with CoCl₂ for overnight. Cells were harvested and post-nuclear supernatant was prepared and used for IP with anti-FLAG antibodies. […] Similar results are achieved with RTP801L

T1 sequence (P49815 other isoform, or with tags, fused parts or gaps limits assumed): as above

B2: FLAG-(N-C2)hRTP801 (other)
chain: MPSLWDRFSSSSTSSSPSSLPRTPTPDRPPRSAWGSATREEGFDRSTSLESSDCESLDSSNSGFGPEEDTAYLDGVSLPDFELLSDPEDEHLCANLMQLLQESLAQARLGSRRPARLLMPSQLVSQVGKELLRLAYSEPCGLRGALLDVCVEQGKSCHSVGQLALDPSLVPTFQLTLVLRLDSRLWPKIQGLFSS
notes: also called hRTP801 N-C2 fragment; hRTP801 N-C2 mutant; not shown: FLAG tag
binding result [2]: binds

B3: FLAG-hRTP801 (other)
chain: T2 sequence
notes: Full length hRTP801 with FLAG tag, expressed in transfected 293T cells; also called FLAG-full length hRTP801; FLAG-tagged hRTP801; not shown: FLAG tag
binding result [3]: binds
binding result (TSC2 [4]): binds
binding result (HA-tagged TSC2 (HA-TSC2)): binds

The next lines start with the values.

binding result (TSC2 [1]): no binding
B1: 6× His hRTP801 N-fragment (other)
chain: MPSLWDRFSSSSTSSSPSSLPRTPTPDRPPRSAWGSATREEGFDRSTSLESSDCESLDSSNSGFGPEEDTAYLDGVSLPDFELLSDPE
notes: not shown: 6× His tag

binding result (TSC2 [4]): binds
B4: FLAG-hRTP801-L (REDD2) (other)
chain: MVATGSLSSKNPASISELLDCGYHPESLLSDFDYWDYVVPEPNLNEVIFEESTCQNLVKMLENCLSKSKQTKLGCSKVLVPEKLTQRIAQDVLRLSSTEPCGLRGCVMHVNLEIENVCKKLDRIVCDSSVVPTFELTLVFKQENCSWTSFRDFFFSRGRFSSGFRRTLILSSGFRLVKKKLYSLIGTTVIEGS
notes: Expressed in transfected 293T cells; also called FLAG-RTP801L; not shown: FLAG tag

Source: US20080014599A1 (published 2008)
